# Experimental data reported in paper PMC12242765, “CDK-driven phosphorylation of TRAIP is essential for mitotic replisome disassembly and MiDAS” (Nucleic Acids Research, 2025).
# B1: His6-SUMO-tagged X. laevis TRAIP-wt (enzyme, UniProt Q6NRV0 1-464, looked up)
# chain: MPIRAYCTICSDFFDNARDVAAITCGHTFHQECLLQWFHSAPHRTCPQCRIQVSSRQIINKLFFDIGGEEETVLDAESLKNEVDRIKASLLVKEKEKRECQGLVDSLREMLDVRNVTIQSQQKELGDMEMLCSTLKKQIKFLDKQQSETKAAKDEARKLRNKLKTMESIEVLLQSQRSEVEEMIRDMGSGQAAVEQLAIYCVSLKKEYENLKEVRKSSAEMTEKLRKELFSSNHKAQKAELELTKVREELSASQKELHSADKEIMSLKKKVEFLQKTLTTPTASNEAISRLIFESPAPIGLERPKLRPPMMGNDINLDVTFDIDTPEHNTQKSVVAPFKKMKFDNKEHPLSSPTKNPLQESKGLMSWAGGRTGADEDDDLTLPSFIKNSLLHKKPVGSLLGLRQNTGAVRTGFDGLGGRTKFIQPSNLTEIRPLHQKMKRKKVSRPTACTSSLANQPRLEDFLK
# notes: TRAIP ubiquitin ligase, Xenopus laevis, wild type; SUMO-TRAIP is said to be 65 kDa; also called His6-SUMO-TRAIP-wt; His-SUMO-TRAIP; source: E. coli Rosetta (DE3) pLysS, pCA528 vector, purified (Ni-NTA; Mono Q for the gel filtration); not shown: His6, N-terminal, kept; SUMO, N-terminal, kept
# B2: phosphorylated His6-SUMO-TRAIP-wt (in vitro phosphorylated with CDK1/Cyclin B) (enzyme, X. laevis, UniProt Q6NRV0 1-464, looked up)
# chain: B1 chain
# modifications: phosphorylated in vitro by CDK1/Cyclin B; mutation of T280, S295 and S352 to alanine (TRAIP-3A) abolishes this phosphorylation
# notes: TRAIP ubiquitin ligase, Xenopus laevis, wild type, as m1; the sites phosphorylated in vitro were not mapped one by one; T325 is discussed as a possible fourth site; also called phosphorylated TRAIP-wt; phosphorylated TRAIP; source: E. coli Rosetta (DE3) pLysS, purified (Ni-NTA, Mono Q), then phosphorylated in vitro with CDK1/Cyclin B; not shown: His6, N-terminal, kept; SUMO, N-terminal, kept
# Key:
# [1] = target: the molecule itself; assay: SEC + other: glycerol gradient sedimentation; Superdex 200 Increase 3.2/300 (Stoke's radius 62.77 Å) and 20%-40% glycerol gradient in LFB1/100 (5.105 S), combined by the Siegel-Monty method; apparent molecular size; monomer to dimer
# [2] = target: the molecule itself; assay: SEC; Superdex 200 Increase 3.2/300, 20 μl/min; TRAIP-wt and CDK1/Cyclin B-phosphorylated TRAIP-wt loaded one at a time; fractions blotted with TRAIP antibodies
Protein,stoichiometry N [1],binding result [2]
B1,2,
B2,,binds
